Laboratory results from patent US20200024322A1 (Eli Lilly, published 2020).
Numbered stars: 1 amine (or outer) side, 2 acyl side, 3 side chain; on linkers, the order of the positions; unused ones are H or OH. Square brackets hold non-standard residues; d marks the D form. Side chains are listed from the residue outwards. Ends that are not written are not given here. * marks the point of attachment. C20 diacid = O=C(O)CCCCCCCCCCCCCCCCCCC(=O)*; C18 diacid = O=C(O)CCCCCCCCCCCCCCCCC(=O)*; γGlu = O=C(O)[C@H](CCC(=O)[*:2])N[*:1]; AEEA = NCCOCCOCC(=O)O; Aib = CC(C)(N)C(=O)O

T1: human GIP receptor (human, UniProt P48546 22-466)
T1 construct: whole, on cells; also called hGIPR; hGIP-R
T1 sequence (looked up): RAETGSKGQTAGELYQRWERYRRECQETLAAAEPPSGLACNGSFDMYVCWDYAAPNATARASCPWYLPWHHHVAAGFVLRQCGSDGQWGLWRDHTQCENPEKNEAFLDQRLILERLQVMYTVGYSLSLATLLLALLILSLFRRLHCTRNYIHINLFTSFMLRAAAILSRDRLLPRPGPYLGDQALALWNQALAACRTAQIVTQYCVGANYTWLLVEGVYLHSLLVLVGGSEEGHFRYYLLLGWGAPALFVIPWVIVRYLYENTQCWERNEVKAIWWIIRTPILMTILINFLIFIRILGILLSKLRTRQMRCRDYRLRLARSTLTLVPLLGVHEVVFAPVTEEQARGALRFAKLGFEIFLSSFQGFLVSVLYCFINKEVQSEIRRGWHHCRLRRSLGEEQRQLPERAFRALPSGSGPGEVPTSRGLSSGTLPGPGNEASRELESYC


Assays:
human glucagon receptor = target: T2, human glucagon receptor (human, UniProt P47871 26-477); test: [125I]-Gcg competition SPA, hGcgR membranes
T2 construct: whole, on cells; also called hGcgR; GcgR

human GLP-1 receptor = target: T3, human GLP-1 receptor (human, UniProt P43220 24-463); test: [125I]-GLP-1 competition SPA, hGLP-1R membranes
T3 construct: whole, on cells; also called hGLP-1R; hGLP1R
Method in brief: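 Kᵢ values are geometric means (SEM) over replicates run on separate days, derived from IC₅₀ of four-parameter curve fits. Buffer: HEPES 25 mM pH 7.4 with CaCl₂ 2.5 mM, MgCl₂ 1 mM, bacitracin 0.1%, TWEEN-20 0.003%, EDTA-free protease inhibitors.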

human GIP receptor = target: T1, human GIP receptor; test: [125I]-GIP competition SPA, hGIPR membranes

T2 sequence (P47871 26-477): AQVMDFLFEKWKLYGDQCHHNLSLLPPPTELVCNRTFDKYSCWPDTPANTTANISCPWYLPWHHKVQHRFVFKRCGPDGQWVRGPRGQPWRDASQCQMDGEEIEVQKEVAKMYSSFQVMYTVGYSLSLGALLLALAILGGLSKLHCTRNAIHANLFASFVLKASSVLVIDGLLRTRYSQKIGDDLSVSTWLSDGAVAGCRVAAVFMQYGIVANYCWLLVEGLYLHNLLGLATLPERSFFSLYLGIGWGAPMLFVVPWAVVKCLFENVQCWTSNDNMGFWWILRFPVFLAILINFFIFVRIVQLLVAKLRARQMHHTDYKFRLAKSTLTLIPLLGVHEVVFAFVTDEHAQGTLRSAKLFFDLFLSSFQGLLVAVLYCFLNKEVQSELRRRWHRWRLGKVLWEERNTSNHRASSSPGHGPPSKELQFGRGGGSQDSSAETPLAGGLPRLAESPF

Ki (human glucagon receptor) [nM]	Ki (human GLP-1 receptor) [nM]	Ki (human GIP receptor) [nM]	Binder
193	2.01	0.0666	Y[Aib]EGTFTSDYSILLDKK([AEEA-AEEA-γGlu-C18 diacid])AQ[Aib]AFIEYLIEGGPSSG-NH2 (N-terminus assumed; SMILES CC[C@H](C)[C@H](NC(=O)[C@H](CC(C)C)NC(=O)[C@H](Cc1ccc(O)cc1)NC(=O)[C@H](CCC(=O)O)NC(=O)[C@@H](NC(=O)[C@H](Cc1ccccc1)NC(=O)[C@H](C)NC(=O)C(C)(C)NC(=O)[C@H](CCC(N)=O)NC(=O)[C@H](C)NC(=O)[C@H](CCCCNC(=O)COCCOCCNC(=O)COCCOCCNC(=O)CC[C@H](NC(=O)CCCCCCCCCCCCCCCCC(=O)O)C(=O)O)NC(=O)[C@H](CCCCN)NC(=O)[C@H](CC(=O)O)NC(=O)[C@H](CC(C)C)NC(=O)[C@H](CC(C)C)NC(=O)[C@@H](NC(=O)[C@H](CO)NC(=O)[C@H](Cc1ccc(O)cc1)NC(=O)[C@H](CC(=O)O)NC(=O)[C@H](CO)NC(=O)[C@@H](NC(=O)[C@H](Cc1ccccc1)NC(=O)[C@@H](NC(=O)CNC(=O)[C@H](CCC(=O)O)NC(=O)C(C)(C)NC(=O)[C@@H](N)Cc1ccc(O)cc1)[C@@H](C)O)[C@@H](C)O)[C@@H](C)CC)[C@@H](C)CC)C(=O)N[C@@H](CCC(=O)O)C(=O)NCC(=O)NCC(=O)N1CCC[C@H]1C(=O)N[C@@H](CO)C(=O)N[C@@H](CO)C(=O)NCC(N)=O) [Example 266]
253	2.63	0.0215	Y[Aib]EGTFTSDYSILLDKK([AEEA-AEEA-γGlu-C20 diacid])AQ[Aib]AFIEYLIAGGPSSG-NH2 (N-terminus assumed; SMILES CC[C@H](C)[C@H](NC(=O)[C@H](CC(C)C)NC(=O)[C@H](Cc1ccc(O)cc1)NC(=O)[C@H](CCC(=O)O)NC(=O)[C@@H](NC(=O)[C@H](Cc1ccccc1)NC(=O)[C@H](C)NC(=O)C(C)(C)NC(=O)[C@H](CCC(N)=O)NC(=O)[C@H](C)NC(=O)[C@H](CCCCNC(=O)COCCOCCNC(=O)COCCOCCNC(=O)CC[C@H](NC(=O)CCCCCCCCCCCCCCCCCCC(=O)O)C(=O)O)NC(=O)[C@H](CCCCN)NC(=O)[C@H](CC(=O)O)NC(=O)[C@H](CC(C)C)NC(=O)[C@H](CC(C)C)NC(=O)[C@@H](NC(=O)[C@H](CO)NC(=O)[C@H](Cc1ccc(O)cc1)NC(=O)[C@H](CC(=O)O)NC(=O)[C@H](CO)NC(=O)[C@@H](NC(=O)[C@H](Cc1ccccc1)NC(=O)[C@@H](NC(=O)CNC(=O)[C@H](CCC(=O)O)NC(=O)C(C)(C)NC(=O)[C@@H](N)Cc1ccc(O)cc1)[C@@H](C)O)[C@@H](C)O)[C@@H](C)CC)[C@@H](C)CC)C(=O)N[C@@H](C)C(=O)NCC(=O)NCC(=O)N1CCC[C@H]1C(=O)N[C@@H](CO)C(=O)N[C@@H](CO)C(=O)NCC(N)=O) [Example 317]
770	4.2	0.064	Y[Aib]EGTFTSDYSILLDKK([AEEA-AEEA-γGlu-C18 diacid])AQ[Aib]TFIEYLIEGGPSSG-NH2 (N-terminus assumed; SMILES CC[C@H](C)[C@H](NC(=O)[C@H](CC(C)C)NC(=O)[C@H](Cc1ccc(O)cc1)NC(=O)[C@H](CCC(=O)O)NC(=O)[C@@H](NC(=O)[C@H](Cc1ccccc1)NC(=O)[C@@H](NC(=O)C(C)(C)NC(=O)[C@H](CCC(N)=O)NC(=O)[C@H](C)NC(=O)[C@H](CCCCNC(=O)COCCOCCNC(=O)COCCOCCNC(=O)CC[C@H](NC(=O)CCCCCCCCCCCCCCCCC(=O)O)C(=O)O)NC(=O)[C@H](CCCCN)NC(=O)[C@H](CC(=O)O)NC(=O)[C@H](CC(C)C)NC(=O)[C@H](CC(C)C)NC(=O)[C@@H](NC(=O)[C@H](CO)NC(=O)[C@H](Cc1ccc(O)cc1)NC(=O)[C@H](CC(=O)O)NC(=O)[C@H](CO)NC(=O)[C@@H](NC(=O)[C@H](Cc1ccccc1)NC(=O)[C@@H](NC(=O)CNC(=O)[C@H](CCC(=O)O)NC(=O)C(C)(C)NC(=O)[C@@H](N)Cc1ccc(O)cc1)[C@@H](C)O)[C@@H](C)O)[C@@H](C)CC)[C@@H](C)O)[C@@H](C)CC)C(=O)N[C@@H](CCC(=O)O)C(=O)NCC(=O)NCC(=O)N1CCC[C@H]1C(=O)N[C@@H](CO)C(=O)N[C@@H](CO)C(=O)NCC(N)=O) [Example 321]
730	7.52	0.0452	Y[Aib]EGTFTSDYSILLDKK([AEEA-AEEA-γGlu-C20 diacid])AQ[Aib]EFIEYLIAGGPSSG-NH2 (N-terminus assumed; SMILES CC[C@H](C)[C@H](NC(=O)[C@H](CC(C)C)NC(=O)[C@H](Cc1ccc(O)cc1)NC(=O)[C@H](CCC(=O)O)NC(=O)[C@@H](NC(=O)[C@H](Cc1ccccc1)NC(=O)[C@H](CCC(=O)O)NC(=O)C(C)(C)NC(=O)[C@H](CCC(N)=O)NC(=O)[C@H](C)NC(=O)[C@H](CCCCNC(=O)COCCOCCNC(=O)COCCOCCNC(=O)CC[C@H](NC(=O)CCCCCCCCCCCCCCCCCCC(=O)O)C(=O)O)NC(=O)[C@H](CCCCN)NC(=O)[C@H](CC(=O)O)NC(=O)[C@H](CC(C)C)NC(=O)[C@H](CC(C)C)NC(=O)[C@@H](NC(=O)[C@H](CO)NC(=O)[C@H](Cc1ccc(O)cc1)NC(=O)[C@H](CC(=O)O)NC(=O)[C@H](CO)NC(=O)[C@@H](NC(=O)[C@H](Cc1ccccc1)NC(=O)[C@@H](NC(=O)CNC(=O)[C@H](CCC(=O)O)NC(=O)C(C)(C)NC(=O)[C@@H](N)Cc1ccc(O)cc1)[C@@H](C)O)[C@@H](C)O)[C@@H](C)CC)[C@@H](C)CC)C(=O)N[C@@H](C)C(=O)NCC(=O)NCC(=O)N1CCC[C@H]1C(=O)N[C@@H](CO)C(=O)N[C@@H](CO)C(=O)NCC(N)=O) [Example 318]
550	1.22	0.0353	Y[Aib]EGTFTSDYSILLDKK([AEEA-AEEA-γGlu-C18 diacid])AQ[Aib]AFIEYLIAGGPSSG-NH2 (N-terminus assumed; SMILES CC[C@H](C)[C@H](NC(=O)[C@H](CC(C)C)NC(=O)[C@H](Cc1ccc(O)cc1)NC(=O)[C@H](CCC(=O)O)NC(=O)[C@@H](NC(=O)[C@H](Cc1ccccc1)NC(=O)[C@H](C)NC(=O)C(C)(C)NC(=O)[C@H](CCC(N)=O)NC(=O)[C@H](C)NC(=O)[C@H](CCCCNC(=O)COCCOCCNC(=O)COCCOCCNC(=O)CC[C@H](NC(=O)CCCCCCCCCCCCCCCCC(=O)O)C(=O)O)NC(=O)[C@H](CCCCN)NC(=O)[C@H](CC(=O)O)NC(=O)[C@H](CC(C)C)NC(=O)[C@H](CC(C)C)NC(=O)[C@@H](NC(=O)[C@H](CO)NC(=O)[C@H](Cc1ccc(O)cc1)NC(=O)[C@H](CC(=O)O)NC(=O)[C@H](CO)NC(=O)[C@@H](NC(=O)[C@H](Cc1ccccc1)NC(=O)[C@@H](NC(=O)CNC(=O)[C@H](CCC(=O)O)NC(=O)C(C)(C)NC(=O)[C@@H](N)Cc1ccc(O)cc1)[C@@H](C)O)[C@@H](C)O)[C@@H](C)CC)[C@@H](C)CC)C(=O)N[C@@H](C)C(=O)NCC(=O)NCC(=O)N1CCC[C@H]1C(=O)N[C@@H](CO)C(=O)N[C@@H](CO)C(=O)NCC(N)=O) [Example 272]
1030	2.31	0.175	Y[Aib]EGTFTSDYSILLDKK([AEEA-AEEA-γGlu-C18 diacid])AQ[Aib]HFIEYLIEGGPSSG-NH2 (N-terminus assumed; SMILES CC[C@H](C)[C@H](NC(=O)[C@H](CC(C)C)NC(=O)[C@H](Cc1ccc(O)cc1)NC(=O)[C@H](CCC(=O)O)NC(=O)[C@@H](NC(=O)[C@H](Cc1ccccc1)NC(=O)[C@H](Cc1c[nH]cn1)NC(=O)C(C)(C)NC(=O)[C@H](CCC(N)=O)NC(=O)[C@H](C)NC(=O)[C@H](CCCCNC(=O)COCCOCCNC(=O)COCCOCCNC(=O)CC[C@H](NC(=O)CCCCCCCCCCCCCCCCC(=O)O)C(=O)O)NC(=O)[C@H](CCCCN)NC(=O)[C@H](CC(=O)O)NC(=O)[C@H](CC(C)C)NC(=O)[C@H](CC(C)C)NC(=O)[C@@H](NC(=O)[C@H](CO)NC(=O)[C@H](Cc1ccc(O)cc1)NC(=O)[C@H](CC(=O)O)NC(=O)[C@H](CO)NC(=O)[C@@H](NC(=O)[C@H](Cc1ccccc1)NC(=O)[C@@H](NC(=O)CNC(=O)[C@H](CCC(=O)O)NC(=O)C(C)(C)NC(=O)[C@@H](N)Cc1ccc(O)cc1)[C@@H](C)O)[C@@H](C)O)[C@@H](C)CC)[C@@H](C)CC)C(=O)N[C@@H](CCC(=O)O)C(=O)NCC(=O)NCC(=O)N1CCC[C@H]1C(=O)N[C@@H](CO)C(=O)N[C@@H](CO)C(=O)NCC(N)=O) [Example 322]
